Test results taken from publication PMC3444665 (Virology, 2012).

How the values were obtained:
Assay in all cases: pull-down
GST-Agno (F31A) = biological target: T1, GST-Agno (F31A) (JC virus (JCV Mad-1), UniProt P03086 1-71, F31A)
T1 sequence: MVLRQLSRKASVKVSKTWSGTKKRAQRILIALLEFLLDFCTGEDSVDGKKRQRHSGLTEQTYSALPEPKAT

GST-Agno (F35A) = biological target: T2, GST-Agno (F35A) (JC virus (JCV Mad-1), UniProt P03086 1-71, F35A)
T2 sequence: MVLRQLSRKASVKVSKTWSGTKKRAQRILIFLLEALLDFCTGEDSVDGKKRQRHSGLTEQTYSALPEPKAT

GST-Agno (F39A) = biological target: T3, GST-Agno (F39A) (JC virus (JCV Mad-1), UniProt P03086 1-71, F39A)
T3 sequence: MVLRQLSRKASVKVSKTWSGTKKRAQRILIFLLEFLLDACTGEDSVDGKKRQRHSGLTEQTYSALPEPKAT

Measured: fold decrease of the interaction against WT agnoprotein

B1: JCV large T-antigen in whole-cell extracts of HJC-15b cells (natural protein)
chain: MDKVLNREESMELMDLLGLDRSAWGNIPVMRKAYLKKCKELHPDKGGDEDKMKRMNFLYKKMEQGVKVAHQPDFGTWNSSEVPTYGTDEWESWWNTFNEKWDEDLFCHEEMFASDDENTGSQHSTPPKKKKKVEDPKDFPVDLHAFLSQAVFSNRTVASFAVYTTKEKAQILYKKLMEKYSVTFISRHGFGGHNILFFLTPHRHRVSAINNYCQKLCTFSFLICKGVNKEYLFYSALCRQPYAVVEESIQGGLKEHDFNPEEPEETKQVSWKLVTQYALETKCEDVFLLMGMYLDFQENPQQCKKCEKKDQPNHFNHHEKHYYNAQIFADSKNQKSICQQAVDTVAAKQRVDSIHMTREEMLVERFNFLLDKMDLIFGAHGNAVLEQYMAGVAWIHCLLPQMDTVIYDFLKCIVLNIPKKRYWLFKGPIDSGKTTLAAALLDLCGGKSLNVNMPLERLNFELGVGIDQFMVVFEDVKGTGAESRDLPSGHGISNLDCLRDYLDGSVKVNLERKHQNKRTQVFPPGIVTMNEYSVPRTLQARFVRQIDFRPKAYLRKSLSCSEYLLEKRILQSGMTLLLLLIWFRPVADFAAAIHERIVQWKERLDLEISMYTFSTMKANVGMGRPILDFPREEDSEAEDSGHGSSTESQSQCFSQVSEASGADTQENCTFHICKGFQCFKKPKTPPPK
> 3 fold: all assays above
